From the supplement of paper PMC12764529
± gives the half width of the 95% confidence interval.

test: folding stability dG unfold from chymotrypsin proteolysis; higher = more stable
How it was run: (§1)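 Unfolding free energy was derived, per protease or combined, against a sequence-predicted unfolded-state K50 and a shared folded-state K50, starting from K50 inferred by Bayesian fitting of sequencing counts. Digestion with trypsin and chymotrypsin was carried out on designed mini-proteins under 80 residues without cysteine in a PA-tagged cDNA display construct. Only designs with AlphaFold2 dimer inter-PAE above 15 were kept.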

Row | Sequence | folding stability dG unfold [kcal/mol]
1 | SAGGEGKEDKKIKVLFINVPVDKPDLLLKLAKEIIEKKEYDIIIVDHPENYKALKEAFPEYDIPIILGSAGG [r13_353_TrMRF] | 3.673 ± 0.022
2 | SAGGSAGGSAGGKRYRVTELEVVEVDGEKRLLVRFEDGRTQAFPAGAKISPDGAEIELLPSAGGSAGGSAGG [r7_931_TrROS_Hall] | 1.44 ± 0.033
3 | SAGGSAGGSAMEINEIVKETAKKGKNLTITVKLPDGSTVTITVTPDEDVPEDLEVLEVTVKSAGGSAGGSAG [r3_421_JUSTAS] | 1.78 ± 0.038
4 | SAGGSAGGSAGGTPIAETEVSEDPATGKLITTSKSPTDPKVYVTTTDLATGVPTTTPLLSAGGSAGGSAGGS [r10_1034_JUSTAS] | 0.213 ± 0.047
5 | SAGGGMGRIPLYGEERVEEIAAEPDVVSVEEDPETGRTYVYFERPDGYYSFTRDNETGEITEKTPLPSAGGS [r8_251_JUSTAS] | -0.523 ± 0.5
6 | SAGMKIVEIEKKEDGTVKIKIEVNGEEKEIEVKVGETITLPDGSEIEVLEDGTIKVRPLPEPEVEEEESAGG [r19_17_TrROS_Hall] | 2 ± 0.17
7 | SAGGSAGGSKTLIIKIKVEGLSEEEIAEELAKKLQEETGLKIKSVKIEKKDGYLYIEVEVEEPSAGGSAGGS [r12_781_TrROS_Hall] | 3.96 ± 0.17
8 | SAGGSAGGSMKITVEKDENGNYRVTVTLTVNGKEIKLTVTVPKNTTPEEVKKKAEELAKELLKSAGGSAGGS [r12_69_TrROS_Hall] | 5.13 ± 0.44
9 | SAGGSAGGMIVTTTFLPGNLKVVNVTTTYETTDPSGTTTSTTTTSTTIEYIPPVPVDINNPLLISAGGSAGG [r6_920_JUSTAS] | 1.24 ± 0.038
10 | SKTVEITLTNEDGSTVTITFNEETGKIVIKVPPNVSVEQIKALLRKLLPPGAEVTITRTPNGYYEIEVKPSA [r9_933_TrROS_Hall] | 4.41 ± 0.13
11 | SAGGSAGGSPETLTITVKEKPVRIEINGKVIEVKPGDTITIPKELANNIRIEVNEDGSITITPSAGGSAGGS [r20_150_TrROS_Hall] | 1.24 ± 0.11
12 | SMIVKSEPVKDPNSDLTTTPVTITLPVREYDPSLGVTRERLVTINGTVITTLLEKHPDGSVISTVDVLPASA [r9_1058_JUSTAS] | 0.69 ± 0.039
13 | SAGMTVSTETTTFTDPAGFETTVTTLTTTHPDGSVTSTPTTTVTAVPVPPPPAPVPVDPANPDNPALLSAGG [r19_12_JUSTAS] | -0.509 ± 0.095
14 | SAGGHTIWIPFDSPEQAKELANEIARELNDHGLKVKVKVHPDDGWIKVKVDMRNNDKEKKIKIWFPFPSAGG [r13_641_TrROS] | 2.44 ± 0.18
15 | SAGGGSSSSSLTFTYDPATGKVLGSESFTIPSPSGEPRTNVLTLVEKNPSGTLKTTVLTRPVPPTLSSAGGS [r16_595_JUSTAS] | 2.62 ± 0.096
16 | SAGGSAGGSAGGSMIVEEDPVGPEKVTTVTLPEKDKLVTVTETFLPDGSVVTTTTPVPSSAGGSAGGSAGGS [r4_332_JUSTAS] | 2 ± 0.25
17 | SAGGSAGGSAMTTVTSTTEIPPSALTVKTSVSTAPDGSLVETTTVVLPDGSVVTTTLSTVASAGGSAGGSAG [r3_7_JUSTAS] | 1.19 ± 0.018
18 | SAGMVRIETYTHPDGTLRLVVYRPETGERAVFEFPLEDPEKFREAVEELAERLREEGFPVEVDIRPTLPSAG [r5_815_TrMRF] | 4.296 ± 0.023
19 | SAGGMPENMKWRPIPFTQKNPDGLTLKMKIWVFPDPYILIEHEVEDNGKPVAEIPILLPADDPEDLKSAGGS [r16_714_TrROS] | 0.513 ± 0.42
20 | SAGGSAGGSAGMPLTVLGTEEIGDSTTVTTKDPTSDELYRKTYTNGAVSSTEIVPASELGSAGGSAGGSAGG [r11_19_JUSTAS] | 0.282 ± 0.07
21 | SAGGSAGGSKGPMITITLFILVRPDDGKYYATVIEMYIYPNGGIDIEMEMIPADDIPPGDIVISAGGSAGGS [r12_38_TrROS] | 4.74 ± 0.15

test: folding stability dG unfold (combined trypsin and chymotrypsin); higher = more stable
How it was run: as §1

Row | Sequence | folding stability dG unfold [kcal/mol]
22 | SAGGMPVTVEITVDLVLDPRYRPRPVYPPGETWREPERRVLPVTFTATFGDPEDAERAAVELLRALGVSAGG [r13_35_TrMRF] | 1.45 ± 0.062
23 | SAGGGMTVETTSKETPLPDGSLRRTETITITEPGGKPLTRTTTKIWDPSTGKVLETRPVSNATVVAESSAGG [r13_1008_JUSTAS] | -0.187 ± 0.14
24 | SAGGSAGGSAGGPPDLVKVRFIKVSVKLKEVKENPNGEKEMKLEMKIEEVEVTVRKDDLSAGGSAGGSAGGS [r10_524_TrROS_Hall] | 2.71 ± 0.15
25 | SAGGSAGGSAGGNYFMMVVLEIRLPPELKGMSPEEWLKKNGYEVTEIEIKGIYPFPPPDGSAGGSAGGSAGG [r7_62_TrROS] | 2.9 ± 0.1
26 | SAGGSKLPKNSKVLIIDLGAPKGIKPNDKVKIPKELIKKIKEKNPNVKFYKEYNIGNKTYIFIVIDSAGGSA [r2_383_TrMRF] | 1.96 ± 0.12
27 | SASNRVTVSSETVREGDKKLLKLTVTITDSSTGRTSTETLTTEDPEKAREELAARPDVSTLTFETLTPGSAG [r14_464_JUSTAS] | 0.1 ± 0.19
28 | SAGGSAGGWIRVDKVEPNPNDDMATVSVEMEDPGDGKKKKFNMTMPSDNPELIDKLPPGDWIEFSAGGSAGG [r6_979_TrROS] | -0.1 ± 0.096
29 | SAMNLRFPLSTEALAKLLENLTPDQTLELRVRIGDRWVRVRLEIHRIERKEDELRVEVTLEVEPLRPEDSAG [r14_335_TrMRF] | 3.35 ± 0.19
30 | SAGGKTVTTPEQILELIKENPGKTYTITITVPKENQKKVEELKKALEEAGLTVEENENGTLTVTIKPSAGGS [r16_335_TrROS_Hall] | 3.42 ± 0.28
31 | SAGGSAKPKIEIEVEKLEGVKEGDTIEVKIKFPNGFIIKIEAKVKRVDGKLVIEVTKVEVIPKEDLSAGGSA [r15_636_TrROS_Hall] | 3.16 ± 0.3
32 | SAGGSAGGMVTFTVEYESDPALLEKLKEELPGVEILEVKREGPKKTITITIKVPSEEKAKKFLSSAGGSAGG [r6_334_JUSTAS] | 1 ± 0.12
33 | SAGGSAGGSAAPLEARLVSVSRDPAGNRLHAVYVVRDPSTGEQYLVTFSADPTSISVRVERVSAGGSAGGSA [r18_444_TrMRF] | 3.96 ± 0.071
34 | SAGDAEEIAKKIEEAAREEFAARLGYPDLEILKVEVLEVDPVTGRVRVRVTVRLPDGRLLEAEFEVPVASAG [r5_20_TrMRF] | 3.65 ± 0.065
35 | MRRFEFPETGLVVPVVPSPDGRYRVRIYRPGGELVLEVELPDLPIPEGSDAEIRIPLKDLPPDLVTFVEPES [r1_263_TrMRF] | 1.21 ± 0.11
36 | SAGGSANWYIKITIEYPNGREWEIPFPFKSVEDVKDQIKNAAREYFPNLPPEDVKIDDIELYPLDDSAGGSA [r15_220_TrROS] | 1.83 ± 0.097
37 | SAGGSAKEALVKAVEELFKKLFPDEPIEVLKVDPEKGRITIKVNSDEARKALEKALKELGIEVDLDSAGGSA [r15_196_TrMRF] | 3.34 ± 0.11
38 | SAGGSMTTPPTGEVQVFIDRKTDKWTIRIVDPNAPPTTEEVESEEEAEKVIAELEAKGYKVDTVEPLPSAGG [r13_727_JUSTAS] | 0.913 ± 0.29
39 | SAGGSAGGSAGTETKVLFIDENFESVEEAFQALRDLLPDNYKIEPLGVFPAKNKVVVLVTNPSAGGSAGGSA [r18_429_TrMRF] | 0.589 ± 0.15
40 | SAGGSAGGYIMIPPGAEIDVNPENGKIKIKFRNPDNGEEEKITFDVPPGVKIHMWDNWIMIELPSAGGSAGG [r6_804_TrROS] | 3.29 ± 0.29
41 | SAGGSAGGSAPNMDWVMIPIRVPPGEPPKVKITFPDGPTREFDPGRWVWIWFPPGDPMKIEPESAGGSAGGS [r12_553_TrROS] | 1.54 ± 0.15
42 | SAGGSAGGMLEIEFEKPLPNGETLKIKVFFDKDKPEALVEIENPSTNEKKFYNFTSIDEVIEKESAGGSAGG [r6_464_TrMRF] | 1.49 ± 0.24

Row | Sequence | folding stability dG unfold [kcal/mol]
43 | SAGGEGKEDKKIKVLFINVPVDKPDLLLKLAKEIIEKKEYDIIIVDHPENYKALKEAFPEYDIPIILGSAGG [r13_353_TrMRF] | 3.29 ± 0.069
44 | SAGGSAGGSAGGKRYRVTELEVVEVDGEKRLLVRFEDGRTQAFPAGAKISPDGAEIELLPSAGGSAGGSAGG [r7_931_TrROS_Hall] | 1.14 ± 0.04
45 | SAGGSAGGSAMEINEIVKETAKKGKNLTITVKLPDGSTVTITVTPDEDVPEDLEVLEVTVKSAGGSAGGSAG [r3_421_JUSTAS] | 1.4 ± 0.056
46 | SAGGSAGGSAGGTPIAETEVSEDPATGKLITTSKSPTDPKVYVTTTDLATGVPTTTPLLSAGGSAGGSAGGS [r10_1034_JUSTAS] | 0.524 ± 0.064
47 | SAGGGMGRIPLYGEERVEEIAAEPDVVSVEEDPETGRTYVYFERPDGYYSFTRDNETGEITEKTPLPSAGGS [r8_251_JUSTAS] | -0.237 ± 0.21
48 | SAGMKIVEIEKKEDGTVKIKIEVNGEEKEIEVKVGETITLPDGSEIEVLEDGTIKVRPLPEPEVEEEESAGG [r19_17_TrROS_Hall] | 2.64 ± 0.26
49 | SAGGSAGGSKTLIIKIKVEGLSEEEIAEELAKKLQEETGLKIKSVKIEKKDGYLYIEVEVEEPSAGGSAGGS [r12_781_TrROS_Hall] | 4.15 ± 0.21
50 | SAGGSAGGSMKITVEKDENGNYRVTVTLTVNGKEIKLTVTVPKNTTPEEVKKKAEELAKELLKSAGGSAGGS [r12_69_TrROS_Hall] | > 6
51 | SAGGSAGGMIVTTTFLPGNLKVVNVTTTYETTDPSGTTTSTTTTSTTIEYIPPVPVDINNPLLISAGGSAGG [r6_920_JUSTAS] | 1.41 ± 0.14
52 | SKTVEITLTNEDGSTVTITFNEETGKIVIKVPPNVSVEQIKALLRKLLPPGAEVTITRTPNGYYEIEVKPSA [r9_933_TrROS_Hall] | 4.14 ± 0.098
53 | SAGGSAGGSPETLTITVKEKPVRIEINGKVIEVKPGDTITIPKELANNIRIEVNEDGSITITPSAGGSAGGS [r20_150_TrROS_Hall] | 1.6 ± 0.19
54 | SMIVKSEPVKDPNSDLTTTPVTITLPVREYDPSLGVTRERLVTINGTVITTLLEKHPDGSVISTVDVLPASA [r9_1058_JUSTAS] | 0.427 ± 0.049
55 | SAGMTVSTETTTFTDPAGFETTVTTLTTTHPDGSVTSTPTTTVTAVPVPPPPAPVPVDPANPDNPALLSAGG [r19_12_JUSTAS] | 0.163 ± 0.025
56 | SAGGHTIWIPFDSPEQAKELANEIARELNDHGLKVKVKVHPDDGWIKVKVDMRNNDKEKKIKIWFPFPSAGG [r13_641_TrROS] | 1.78 ± 0.36
57 | SAGGGSSSSSLTFTYDPATGKVLGSESFTIPSPSGEPRTNVLTLVEKNPSGTLKTTVLTRPVPPTLSSAGGS [r16_595_JUSTAS] | 2.66 ± 0.35
58 | SAGGSAGGSAGGSMIVEEDPVGPEKVTTVTLPEKDKLVTVTETFLPDGSVVTTTTPVPSSAGGSAGGSAGGS [r4_332_JUSTAS] | 1.96 ± 0.13
59 | SAGGSAGGSAMTTVTSTTEIPPSALTVKTSVSTAPDGSLVETTTVVLPDGSVVTTTLSTVASAGGSAGGSAG [r3_7_JUSTAS] | 1.11 ± 0.047
60 | SAGMVRIETYTHPDGTLRLVVYRPETGERAVFEFPLEDPEKFREAVEELAERLREEGFPVEVDIRPTLPSAG [r5_815_TrMRF] | 3.97 ± 0.049
61 | SAGGMPENMKWRPIPFTQKNPDGLTLKMKIWVFPDPYILIEHEVEDNGKPVAEIPILLPADDPEDLKSAGGS [r16_714_TrROS] | 0.389 ± 0.2
62 | SAGGSAGGSAGMPLTVLGTEEIGDSTTVTTKDPTSDELYRKTYTNGAVSSTEIVPASELGSAGGSAGGSAGG [r11_19_JUSTAS] | 0.217 ± 0.072
63 | SAGGSAGGSKGPMITITLFILVRPDDGKYYATVIEMYIYPNGGIDIEMEMIPADDIPPGDIVISAGGSAGGS [r12_38_TrROS] | 4.55 ± 0.22
